Article PMC2761489

Columns and labels:
[1] = target: Microtubule extensions grown from free porcine brain tubulin with GTP (GDP-tubulin lattice with growing ends) (porcine) (UniProt P02550); test: two-color TIRF microscopy; GMPCPP seeds immobilised on coverslips (biotin-neutravidin or anti-rhodamine antibodies); 50 nM EB1-GFP with 12 uM free tubulin (10-24 uM in other runs) and 1 mM GTP in Imaging Buffer (BRB80, glucose, glucose-oxidase, catalase, casein, beta-mercaptoethanol), no additional salt; 35 C
[2] = target: GMPCPP microtubules (GMPCPP-tubulin microtubule lattice; seeds and GMPCPP-grown extensions) of porcine brain tubulin (porcine) (UniProt P02550); test: as above

Question: With “C-terminus GFP-tagged EB1 (from UniProt Q15691 1-268) (natural protein)” as the substance, how does the average fluorescence intensity, extension minus background [1] read?
Answer: The average fluorescence intensity, extension minus background was 12.8 AU.

Question: What about the average fluorescence intensity, seed minus background [2] of the same substance?
Answer: The average fluorescence intensity, seed minus background was 62.6 AU.
